For this series, the system named is Bacillus subtilis DB104 (SP-AmyQ fusion secretion). As to the kind of experiment: AmyQ secretion efficiency, weighted average sort bin (1 = best secretion, 10 = worst) (bin number (weighted average, 1-10)); higher = lower secretion efficiency. Summed up:
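Occupied alginate beads were sorted by large-particle flow cytometry into 10 equally populated bins according to green/red fluorescence ratio. Each bead (~65 nL) held fluorescein-starch and about 0.3 cells of a B. subtilis DB104 library expressing mature AmyQ fused to designed signal peptides from the amyE locus, and beads were grown about 13 h at room temperature and stained with nile red before sorting. Bin amplicons were Illumina-sequenced, and the secretion score is the read-frequency-weighted average bin number, normalised to beads per bin, excluding low-abundance sequences.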

Values joined by “and” are separate entries in the source; they are usually repeats but may differ in a detail not shown here. Equal values may be shown once.

MKKTIMSFVAVAALSTTAFGAHASAATK showed an AmyQ secretion efficiency of 3.57. As for MKWMCSICCAAVLLAGGARQAEAV, the figure is 2.15. Consider MFNRLFRVCFLAALIMAFTLPNSYYAQKP, for which the AmyQ secretion efficiency was 7.48. Then MKRIRIPMTLALGAALTIAPLSFVSAEEN, with 2.58; and MKKCLLFLTTIALILSLSTNGFAKNT, with 6.12; and MRPVFPIMNNILLILSAVLFLSCFFGARQTEASASKR, with 1.84. As for MKFVKRRIIALVTILMLSVTSLFADEEEAKAAEH, the figure is 2.36. As for MKKVLMAFIICLSLILSVLAAAKAESV, the figure is 4.23.

In turn, MGLGKKLSVAVAASFMSLSISLPGVQEAEG came in with an AmyQ secretion efficiency of 6.02. As to MRIFKKAVFVIMISFLIATVNVNTAHAKKR, the AmyQ secretion efficiency was determined as 2.09.

As for MRKYTVRRKRKRSFLSVLSGGHHESKAFPV, the AmyQ secretion efficiency was 7.56. As for MGGSIILLLAVIIAAAAAGVAFYV, the figure is 7.67; as for MMKKLFHSTLRRRRFFSFFGVQPIHAKKQ, 7.67. Then MKSKGSIMACLILFSFTITTFINTETGSAFSN, with 5.58; and MKKRKRKILLSSALSFGMLISAVPALAAGT, with 3.32; and MLKKKWMVKKKRRCKAAGGFSYNAFATEN, with 7.54.

Regarding MKKKLAAGLTASAIVGTTLVVTPQEAATI, the AmyQ secretion efficiency worked out at 5.9. As for MTMLRKIRRKKLLLCIIPLFAFTVIASGKEV, the figure is 6.88; as for MKRITINIITMFIAAAVIKRRRRKKAEAAEK, 6.55. MKFVKRRIRKKRRRLMLSVTSLFALQPSAKAAEH registered an AmyQ secretion efficiency of 6.62. Sequence MNLRKILLSSALSLGMLPSAAPVLATSS yielded an AmyQ secretion efficiency of 2.71. Sequence MRKKRVITCVMAASLTLGSLLPAGYSSAKED displayed an AmyQ secretion efficiency of 3.75. Then MKRIRIPMTLALGAALTIAPLSFASGEEN, with 3.92; and MKVCQKSIVRSQRSLIIGTFVISVPFMANAQSD, with 5.65; and MKKSQYFIVFICFFVLFSVHPIALAAADS, with 3.9. On to MTKKAWFLPLVCVLLISGWLAPAASLSAQTT, for which the AmyQ secretion efficiency turned out to be 3.89. Regarding MFKFKKNFRKKRSAALMSISLFSATASAAST, the AmyQ secretion efficiency came out at 4.73. Then MRKKRVITCVMAASLTLGSLLPAGYASTKED, with 2.82; and MRSYIKVLTMCFLGLILFVPTALYDNS, with 8.55; and MRNLTKTSLLLAGLCTAAQMVFVTHSTASAEES, with 3.1.

MMKKQVMLALTAAAGLGLTALHSAPAAKAAPL had an AmyQ secretion efficiency of 2.65.

As for MKKRKKKSLLALLAVVAFAFTDSSKAKAAEA, the AmyQ secretion efficiency was 2.95. As for MMIMQCVICLSLLVFGTTAAHAEET, the figure is 2.38; as for MKKWMALTSGLFLAAAVLLCLMVPQQIQGASS, 4.17. As for MKKVMLATALFLGLTPAGVNAADL, the figure is 4.08; as for MKKRFFGPIILAFILFAGAIDIPS, 6.03; as for MKKRKVLLSALLLLLFAFEPSASGKKL, 2.85. As for MKKAFILSAAAAVGLFTFGGVQQASMKEL, the figure is 5.04. As for MKRKIVRMTLPLLIVCLAFSSFSASARAASE, the AmyQ secretion efficiency worked out at 2.21. As for MKLSVKFLFIAGVLTVAAAAMTAKMYATAKGN, the figure is 4.51; as for MKKLIMALVILGALKKRKKKISADSS, 8.07; as for MKKQIITATTAVVLGSTLFAGAASAEEE, 2.04. For MKQFAITLSVLCALILLVPTLLVIPFQHNKAAGASV, the AmyQ secretion efficiency is 4.37.

Turning to MIAYFGKCLLLVTIMFLGVLFGMQQANHG, the AmyQ secretion efficiency was 6.54 and 6.99 and 8.58. As for MKRIRIPMTLALGAALTIAPLSFASQEEN, the figure is 7.06.

As for MKKQIITATTAVVLGSTGAASAQSI, the AmyQ secretion efficiency turned out to be 4.95. MKSKGSIMACLILFSFTITTFINTETMSAFSN yielded an AmyQ secretion efficiency of 5.38. Sequence MNLWMRKTLVVLFTIVTFGLVSPPAALMADKP had an AmyQ secretion efficiency of 2.15. Then MLKKIALTLCPAIVGSLLFFTAPLSAHVS, with 3.94. Then MRKTIFAFLTGLMMFKKRTAASASPD, with 6.93. MKKRFSLIMMTGLLFGLTSPAFAAPE returned an AmyQ secretion efficiency of 3.06. Then MRNLTKYYTTLAGLCTAAQMVFVTHASAEES, with 3.01.

With MKVPKTMLLSTAAGLLLSLTATSVSIHYV, the AmyQ secretion efficiency is 5.12. Then MKKKLAAGLTASAIVGTTLVVTPAEYATI, with 6.06; and MTTTSIFVITCVMAASLTLGSLLPAGYASAKED, with 3.58; and MMTIWIGMLAAAVLLLMVPKVSLADAA, with 5.79.

As to MGLGKKLSVAVAASFMSLSISLKRRRKRVQAAEG, the AmyQ secretion efficiency stood at 7.64. Then MKSLPYTIALLFCGLIIVSMAAKGHKK, with 6.13; and MKLSVKIAGVLTVAAAAMTAKMYVTAKGN, with 8.14; and MPYLKRVLLLLVTGLFMSLFAVTATASWQTG, with 2.84. The sequence MGRIKTKITILLVLLLLLAGGYWYIN came in with an AmyQ secretion efficiency of 6.88. Consider MRKYTVIASILLSFLSVLSGGHHESKAFPR, for which the AmyQ secretion efficiency worked out at 4.58. Then MLKRTSFVSSLFISSAVLLSILLIASTAHAQSA, with 3.17.

MKKAFILSAAAAVGLFTFSIGGVQQASAKEL: the AmyQ secretion efficiency was 3.67. In turn, MGMLFKIIGWILLLCIIPLFAFTVIASGKEV showed an AmyQ secretion efficiency of 2.66.

On to MLKKIALTLCPAIVGSLLFFTAPDSAHVS, for which the AmyQ secretion efficiency came to 6.1. As for MKRKRLLSTLLIGIMLLTFAPSAFAKQD, the figure is 1.87. As for MKLKKRVSMFLVALTMCGGLFVTPAKYVKT, the figure is 5.18; as for MLKKKWMVGLLAGCLAAGGFSYNQFATEN, 6.91; as for MKKKQVMLALTAAAGLGLTALHSAPAAKAADD, 3.53. Then MHLIRAAGAVCLAVVLIAGCRFNEDQHQAEPENT, with 6.25. The sequence MKKTIMSFVAVAALSTTAFGAHTSAKEI showed an AmyQ secretion efficiency of 2.69. Take MKKRLIAPMLLSAASLAFFAMAQAAAY: the AmyQ secretion efficiency came to 6.11.

MKRSISRRRKCLLITLLTMGGMIASPASAAGT gave an AmyQ secretion efficiency of 2.97. MKRLFMKASLVLFAVVFVFAVKGAIAKAETH: the AmyQ secretion efficiency is 2.52. As for MKKWMAGLFLAAAVLLCLMVPQQSQGASS, the figure is 5.65; as for MKKKLAAGLTASAIVGTTLVVTPKEAATI, 4.56; as for MIVSRQTRQRIIVFLSVIQPQPS, 6.7. As for MNLRKILLSSALSLGMLVSAAPVLMTSS, the figure is 4.51. Take MKLWMRKTLVVLFTIVTFGLVSPPALMADKP: the AmyQ secretion efficiency was 1.9. As for MRHKSITFILAVVVIIIIGNMIGGGGGSEATSK, the AmyQ secretion efficiency was found to be 6.79.

With MKWMCSICCAAVLLAGGAAQVEAV, the AmyQ secretion efficiency worked out at 2.92.

MRFTKVVGFLSVLGLAADEDLTAQAEKA: the AmyQ secretion efficiency stood at 3.78. Turning to MFNRLFRVCFLAALIMAFTLPNSVYIQKP, the AmyQ secretion efficiency is 7.01. Then MLTKRLLTIYIMLLGLIAWFPGAAQAASK, with 1.8; and MRFTKVVGFLSVLGLAAVFPLTCQAEKA, with 2.19; and MKKKLAAGLTASAIVGTTLVVTPCEAATI, with 1.75. MRMLWRSLALCGLALTLAPCAQADDD came in with an AmyQ secretion efficiency of 4.62.

For MKKTIMSFFFVAVAALSTTAFGAHASAKEI, the AmyQ secretion efficiency came out at 2.53. As for MKRSISIFITCLLITLLKRKKRRASPASAAGT, the figure is 6.57; as for MKKAFLVFLSVVLVTTVFLVKQQESVHQAKQL, 6.34. Then MKLAKRVSALTPSTTLAITAKDKEL, with 6.63; and MKKLLAAGIIGLLTVSIASPAFAAEK, with 2.44. As for MFKKHTISLLIIFLLAEAVLAEPIEAHTV, the figure is 2.51; as for MRPVFPLILSAVLFLSCFFGARQTEGSASKR, 4.92; as for MKSKGSIMACLILFSFTITTFINTETWSAFSN, 7.56. Regarding MKRIRIPMTLALGAALTIAPLSFWSAEEN, the AmyQ secretion efficiency turned out to be 6.56. Then MKKLLAAGIIGLLTVSIASPHFAAEK, with 7.4; and MKKTIMSFVAVAALSTTAFVLSSFGAHASAKEI, with 3.42. In turn, MRSYIKVLTMCFLGLILFVPTQTALADNS returned an AmyQ secretion efficiency of 2.3.

MKIRKILLSSALSFGMLISAVPALFAGT gave an AmyQ secretion efficiency of 5.97. As for MKKWMITIAMLILAGIALFVFISPNKSHKT, the figure is 5.8. As for MKLKSKLLLSCLALSTVFVATTIANAKRR, the figure is 7.22.

MKKKLAAGLTASAIVGTTLVVTPAEEATI yielded an AmyQ secretion efficiency of 6.94. As for MLKKIALTLCPAIVGSLLFFTKRKKRKASAHVS, the figure is 7.45. Then MKIRKILLSSALSFGMLEDEVPALAAGT, with 2.62; and MMGKGLLAGALTATVLFGTCAVDVPGIISPKTAEAASQ, with 1.48.

Sequence MFNRLFRVCFLAALIMAFDDDNSVYAQKP showed an AmyQ secretion efficiency of 2.33. As for MKRLLVSLRVWMVFLMNWVTPDRKTGAAAVY, the figure is 6.91.

The values are drawn from the supplement of paper PMC9942255.
